Like-named read-outs stand apart in the source and are kept apart here.
Key:
recombinant human IL-17A [1] = molecular target: T1, recombinant human IL-17A (human, UniProt Q16552 24-155); test: cell-based or functional assay
recombinant human IL-17A [2] = molecular target: T1, recombinant human IL-17A; test: competition ELISA, IL-17A binding to coated IL-17RA-Fc; FIG. 9A
recombinant human IL-17A [3] = molecular target: T1, recombinant human IL-17A; test: SPR (BIAcore)
recombinant human IL-17A [4] = molecular target: T1, recombinant human IL-17A; test: VH screening as in examples 7 and 8
recombinant human IL-17A [5] = molecular target: T1, recombinant human IL-17A; test: SPR (BIAcore T200), IL-17A coupled to CM5 chip, single-cycle kinetics
IL-17C [6] = molecular target: T2, IL-17C (UniProt Q9P0M4 19-197, limits assumed); test: specificity ELISA on coated antigen, VH concentration not given
T2 sequence (looked up): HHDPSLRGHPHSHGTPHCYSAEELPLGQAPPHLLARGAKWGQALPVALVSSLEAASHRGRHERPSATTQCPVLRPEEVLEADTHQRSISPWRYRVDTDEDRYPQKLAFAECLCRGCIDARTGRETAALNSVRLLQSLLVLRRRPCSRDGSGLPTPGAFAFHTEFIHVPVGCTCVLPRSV

IL-17F [7] = molecular target: T3, IL-17F (UniProt Q96PD4 31-163, limits assumed); test: as above
T3 sequence (looked up): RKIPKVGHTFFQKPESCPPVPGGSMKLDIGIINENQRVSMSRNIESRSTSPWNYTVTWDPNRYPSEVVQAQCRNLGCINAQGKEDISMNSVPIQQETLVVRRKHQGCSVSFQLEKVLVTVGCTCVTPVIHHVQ

IL17E = molecular target: T4, IL17E; test: as above
T4 construct: also called IL-25
T4 chain: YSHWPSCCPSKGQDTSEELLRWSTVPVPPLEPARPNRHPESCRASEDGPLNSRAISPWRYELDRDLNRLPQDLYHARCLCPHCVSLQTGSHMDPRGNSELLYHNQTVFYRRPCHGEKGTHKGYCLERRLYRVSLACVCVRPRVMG

recombinant human IL-17A [8] = molecular target: T1, recombinant human IL-17A; test: BIAcore single-cycle kinetics on immobilised IL-17A, 1:1 binding fit
IL-17C [9] = molecular target: T2, IL-17C; test: specificity ELISA on coated antigen, VH concentration not given; remark: listed apart in the source
recombinant IL-17RA-Fc = molecular target: T5, recombinant IL-17RA-Fc (UniProt Q96F46 33-320); test: as above
T5 construct: Bought reagent; also called R & D systems cat #177-IR-100; receptor; not shown: Fc part of the bought fusion, not described

IL-17F [10] = molecular target: T3, IL-17F; test: as above; remark: listed apart in the source
murine IL-17A = molecular target: T6, murine IL-17A (murine, UniProt Q62386 26-158, limits assumed); test: as above
T6 sequence (looked up): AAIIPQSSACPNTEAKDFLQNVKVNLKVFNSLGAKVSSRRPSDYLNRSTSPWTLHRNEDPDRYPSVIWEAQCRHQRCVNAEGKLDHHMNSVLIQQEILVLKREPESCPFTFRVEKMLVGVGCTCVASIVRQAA

recombinant human IL-17A [11] = molecular target: T1, recombinant human IL-17A; test: competition ELISA, IL-17A binding to coated IL-17RA-Fc
recombinant human IL-17A [12] = molecular target: T1, recombinant human IL-17A; test: SPR (BIAcore T200), IL-17A coupled to CM5 chip, single-cycle kinetics; remark: listed apart in the source

T1 sequence (Q16552 24-155): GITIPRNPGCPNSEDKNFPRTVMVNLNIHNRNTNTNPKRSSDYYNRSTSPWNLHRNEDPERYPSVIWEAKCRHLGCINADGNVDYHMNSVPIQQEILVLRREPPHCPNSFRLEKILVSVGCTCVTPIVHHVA

B1: VH 1.6.1 (clone 1.6 expressed from phagemid vector: with linker residues and His tag) (VHH)
VHH: EVQLVESGGGLVQPGGSLRLSCAASGFTFSSYSMYWVRQAPGKGLEWVAEIKQDGSEQYYVDSVKGRFTISRDNAKNSLYLQMNSLRAEDTAVYYCAKGEILPLYFDYWGQGTLVTVSS
notes: Human single VH domain
Cell assay IC50 (nM), IL-17A-induced IL6 release from HT1080 (recombinant human IL-17A [1]): 1.3 nM | IC50 (recombinant human IL-17A [2]): 5 nM | Kd (recombinant human IL-17A [3]): 0.63 nM | fold improved affinity over clone 1.1 (recombinant human IL-17A [4]): ≤ 10 fold | Kd (recombinant human IL-17A [5]): 0.627 nM | koff (recombinant human IL-17A [5]): 0.000482 s⁻¹ | kon (recombinant human IL-17A [5]): 770000 M⁻¹ s⁻¹ | binding result (IL-17C [6]): no binding | binding result (IL-17F [7]): no binding | binding result (IL17E): no binding

B2: VH 1.10.1 (clone 1.10 expressed from phagemid vector: with linker residues and His tag) (VHH)
VHH: EVQLVESGGGLVQPGGSLRLSCAASGFTFSSYRMYWVRQAPGKGLEWVASIEQDGSEEYYVDSVKGRFTISRDNAKKSLFLQMNSLRAEDTAVYYCAKGEILPLYFDYWGQGTLVTVSS
notes: Human single VH domain
Cell assay IC50 (nM), IL-17A-induced IL6 release from HT1080 (recombinant human IL-17A [1]): 1.9 nM | koff (recombinant human IL-17A [8]): 0.000755 s⁻¹ | kon (recombinant human IL-17A [8]): 700000 M⁻¹ s⁻¹ | binding result (IL-17C [9]): no binding | binding result (recombinant IL-17RA-Fc): no binding | binding result (IL-17F [10]): no binding | binding result (murine IL-17A): binds | IC50 (recombinant human IL-17A [2]): 4 nM | Kd (recombinant human IL-17A [3]): 1 nM | fold improved affinity over clone 1.1 (recombinant human IL-17A [4]): ≤ 10 fold | Kd (recombinant human IL-17A [5]): 1.46 nM | koff (recombinant human IL-17A [5]): 0.000966 s⁻¹ | kon (recombinant human IL-17A [5]): 664000 M⁻¹ s⁻¹ | binding result (IL17E): no binding

B3: VH 1.20.1 (clone 1.20 expressed from phagemid vector: with linker residues and His tag) (VHH)
VHH: EVQLVESGGGLVQPGGSLRLSCAASGFTFSSYGMYWVRQAPGKGLEWVAKIEQDGSEEYYADSVKGRFTISRDNAKKSLYLQMNSLRAEDTAVYYCAKGEILPLYFDYWGQGTLVTVSS
notes: Human single VH domain
Cell assay IC50 (nM), IL-17A-induced IL6 release from HT1080 (recombinant human IL-17A [1]): 2.03 nM | binding result (IL-17C [9]): no binding | binding result (recombinant IL-17RA-Fc): no binding | binding result (IL-17F [10]): no binding | binding result (murine IL-17A): binds | Kd (recombinant human IL-17A [5]): 0.244 nM | koff (recombinant human IL-17A [5]): 0.000208 s⁻¹ | kon (recombinant human IL-17A [5]): 851000 M⁻¹ s⁻¹

B4: VH 1.7.1 (clone 1.7 expressed from phagemid vector: with linker residues and His tag) (VHH)
VHH: QVQLVESGGGLVQPGGSLRLSCAASGFTFSSYGMYWVRQAPGKGLEWVAKIEQDGSEEYYVDSVKGRFTISRDNAKKSLYLQMNSLRAEDTAVYYCAKGEILPLYFDYWGQGTLVTVSS
notes: Human single VH domain
Cell assay IC50 (nM), IL-17A-induced IL6 release from HT1080 (recombinant human IL-17A [1]): 2 nM | IC50 (recombinant human IL-17A [2]): 7 nM | fold improved affinity over clone 1.1 (recombinant human IL-17A [4]): ≤ 10 fold | Kd (recombinant human IL-17A [5]): 0.609 nM | koff (recombinant human IL-17A [5]): 0.000466 s⁻¹ | kon (recombinant human IL-17A [5]): 765000 M⁻¹ s⁻¹

B5: VH 1.19.1 (clone 1.19 expressed from phagemid vector: with linker residues and His tag) (VHH)
VHH: EVQLVESGGGLVQPGGSLRLSCATSGFTFSSYGMYWVRQAPGKGLEWVAEIKQDGSEKYYVDSVKGRFTISRDNAKNSLYLQMNSLRAEDTAVYYCAKGEILPLYFDYWGQGTLVTVSS
notes: Human single VH domain
Cell assay IC50 (nM), IL-17A-induced IL6 release from HT1080 (recombinant human IL-17A [1]): 1.2 nM | binding result (IL-17C [9]): no binding | binding result (recombinant IL-17RA-Fc): no binding | binding result (IL-17F [10]): no binding | binding result (murine IL-17A): binds | Kd (recombinant human IL-17A [5]): 0.215 nM | koff (recombinant human IL-17A [5]): 0.000153 s⁻¹ | kon (recombinant human IL-17A [5]): 714000 M⁻¹ s⁻¹

B6: Family 4 (clone 4.1) (VHH)
VHH: QVQLVESGGGLVQPGGSLRLSCAASGFTFSSYWMNWVRQAPGKGLEWVATIKQDGSEKYYVDSVKGRFTISRDNATNSLFLQMNSLRAEDTAVYYCARGDTIFDGAFDIWGQGTMVTVSS
notes: Human single VH domain
IC50 (recombinant human IL-17A [11]): 3140 nM | Kd (recombinant human IL-17A [12]): 493 nM | koff (recombinant human IL-17A [12]): 0.00289 s⁻¹ | kon (recombinant human IL-17A [12]): 5860 M⁻¹ s⁻¹

B7: Family 5 (clone 5.1) (VHH)
VHH: EVQLVESGGGLVQPGGSLRLSCAASGFTFSSYWMSWVRQAPGKGLEWVANIKQDGSEKYYVDSVKGRFTISRDNAKNSLYLQMNSLRAEDTAVYYCAHGQWPFFDYWGQGTMVTVSS
notes: Human single VH domain
IC50 (recombinant human IL-17A [11]): 337 nM | Kd (recombinant human IL-17A [12]): 166 nM | koff (recombinant human IL-17A [12]): 0.0505 s⁻¹ | kon (recombinant human IL-17A [12]): 304000 M⁻¹ s⁻¹
